Binding result and EC50 data for one molecule are collected here from publication doi:10.1101/2020.11.24.393629 (bioRxiv, 2020).

The target of assay [1] is SARS-CoV RBD (SARS-CoV, GenBank NC_004718.3, UniProt P59594). Put plainly: BLI. A general note: BLI is a label-free optical method that tracks binding on a fibre tip over time.
Assay [2] concerns the target T1, Recombinant RBD protein of SARS-CoV-2 with His tag (SARS-CoV-2, UniProt P0DTC2). Put plainly: ELISA. On the technique in general: An ELISA detects its analyte on a solid surface through an enzyme-linked reagent.
Assay [3] addresses SARS-CoV-2 S on 293T cells expressing SARS-CoV-2 S (SARS-CoV-2-S cells) (SARS-CoV-2, UniProt P0DTC2). The assay can be described thus: flow cytometry on cells. For orientation: A flow cytometer gives signals particle by particle.
The target of assay [4] is T1, Recombinant RBD protein of SARS-CoV-2 …. Put plainly: flow cytometry on cells.

B1: HB27, humanized anti-SARS-CoV-2 monoclonal antibody (IgG) (antibody, V domains shown)
VH: VKLVESGGGLVKPGGSLRLSCAASGFTFTNYGMSWVRQAPGKRLEWVAEISSGGSYTYYPDTVTGRFTISRDNAKNTLYLQMNSLRAEDTAVYYCARFRYGGGGTVDYWGQGTLVTVSS
VL: IVLTQSPTLSLSPGERATLSCRASESVDNYGISFMNWFQQKPGQAPRLLIYAASNQGSGIPSRFSGSGSGTDFSLTISSLEPEDFAVYFCQQSKEVPRIFGQGTKVEIL
In general, EC50 refers to the concentration that produces a half-maximal response. In the case of B1, the binding result in assay [1] is listed as “no binding”. The EC50 in assay [2] is 0.5 nM; in assay [3], 5 to 50 nM; in assay [4], 5 to 50 nM.
